Assay results: PMC3578932, “In Vitro Characterization of Echinomycin Biosynthesis: Formation and Hydroxylation of L-Tryptophanyl-S-Enzyme and Oxidation of (2S,3S) β-Hydroxytryptophan” (PLoS ONE, 2013)

Legend:
[1] = target: tryptophan 2,3-dioxygenase Qui17 (Streptomyces griseovariabilis subsp. bandungensis subsp. nov); assay: SEC; purified His-tagged Qui17; data not shown
[2] = target: A-PCP didomain NRPS protein Qui18 (Streptomyces griseovariabilis subsp. bandungensis subsp. nov) (UniProt G9JKM4); assay: SEC; copurified His6-tagged Qui5 and Qui18 from coexpression; peak at around 160 kD; fraction analysed by SDS-PAGE (data not shown); conditions: scale: subunits of Qui5 with 2 subunits of Qui18
[3] = target: T1, Qui5 and holo-Qui18 coexpression product (complex) (Streptomyces griseovariabilis, UniProt G9JKM4); assay: Q-TOF-MS of amino acid loading onto holo-Qui18; type: biochemical; conditions: covalent; thioester to 4'-phosphopantetheine of the PCP domain; 5 mM L-tryptophan, 5 mM ATP, 10 mM MgCl2, 2 mM DTT, pH 8.0, 27°C, 2 hr
T1 construct: full-length A-PCP didomain Qui18 (611 aa) and Qui5 (71 aa), both His6-tagged, coexpressed in E. coli BL21(DE3) with B. subtilis sfp; holo form 64,836 Da (4'-phosphopantetheine on PCP Ser); hetero-tetramer about 160 kD; with MbtH-like protein

tryptophan 2,3-dioxygenase Qui17 (enzyme)
stoichiometry N [1]: 4

MbtH-like protein Qui5 (natural protein)
stoichiometry N [2]: 2

N[C@@H](Cc1c[nH]c2ccccc12)C(=O)O [L-tryptophan]
Q-TOF-MS of amino acid loading onto holo-Qui18 [3]: Qui18 recognized L-tryptophan as its substrate and its function depended on the association with Qui5
